The assay has as its target T1, Ebola virus GPCL trimer (thermolysin-cleaved, purified GP ectodomain) (Ebola virus (Zaire ebolavirus); GP1 …).
T1 chain 1: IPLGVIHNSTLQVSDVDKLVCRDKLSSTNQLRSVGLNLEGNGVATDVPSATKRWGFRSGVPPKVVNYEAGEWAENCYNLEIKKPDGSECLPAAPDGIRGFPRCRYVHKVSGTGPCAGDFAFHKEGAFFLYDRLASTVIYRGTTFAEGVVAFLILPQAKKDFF
T1 chain 2: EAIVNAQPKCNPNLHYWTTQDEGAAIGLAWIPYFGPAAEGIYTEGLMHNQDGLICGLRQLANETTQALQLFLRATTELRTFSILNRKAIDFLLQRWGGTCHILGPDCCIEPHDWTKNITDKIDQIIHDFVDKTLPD
Briefly: crystal structure.

B1: KZ52 Fab (Fab, V domains shown)
VH: EVQLLESGGGLVKPGGSLRLSCAASGFTLINYRMNWVRQAPGKGLEWVSSISSSSSYIHYADSVKGRFTISRDNAENSLYLQMNSLRAEDTAVYYCVREGPRATGYSMADVFDIWGQGTMVTVSS
VL: not shown
Regarding B1, the binding result is given as “binds”.

The values are drawn from article PMC4791852 (mBio, 2016).
